Experimental data published in paper PMC5009318, “Structural insights into the IgE mediated responses induced by the allergens Hev b 8 and Zea m 12 in their dimeric forms” (Scientific Reports, 2016).
Several values for one entry are separate records, joined by “and”; a condition that tells them apart may be missing. Equal entries are not always repeated.

Target: the molecule itself
Assay: SEC; HiLoad 16/60 Superdex 75, 50 mM Tris-HCl pH 7.5; samples incubated 1 week at 4 °C and applied at 10 mg/mL; calibrated with myoglobin, alpha-chymotrypsin and BSA

B1: recombinant profilin allergen rHev b 8 (isoform Hev b 8.0102) from Hevea brasiliensis (natural protein)
chain: MSWQAYVDDHLMCEIEGNHLSAAAIIGQDGSVWAQSANFPQFKSEEITGIMSDFHEPGTLAPTGLYIGGTKYMVIQGEPGAVIRGKKGPGGVTVKKTNQALIIGIYDEPMTPGQCNMIVERLGDYLIDQGY
notes: Cloned in pET28c; The dimer is held by a disulfide bridge between Cys13 of both chains; also called monomeric rHev b 8; dimeric rHev b 8; source: E. coli Rosetta (DE3), purified (Ni-NTA, enterokinase cleavage, mono Q anion exchange; oligomers separated by SEC)
For B1, the “stoichiometry N” value was 2 and 3 and 4.
